From patent US7521540B2, “CYR61 compositions and methods” (Munin Corporation, priority 1996, dated 2009)

Test system: Limb mesenchymal cells
Assay: Limb mesenchymal cell proliferation in micromass culture
Format: cell-based, mouse
Method: Ahrens et al., Dev. Biol. 60:69-82 (1977), has reported that these cells, in micromass culture, undergo chondrogenesis in a manner similar to the in vivo process. Mesenchyme cells were obtained from mouse embryonic limb buds by trypsin digestion (1 mg/ml, 1:250 dilution of porcine pancreatic trypsin, Sigma Chemical Co.). Cells were explanted in plastic tissue culture wells and allowed to attach for 2 hours at 37° C., 5% CO2. Cells were then incubated for 24 hours at 37° C., 5% CO2 in MEM with 10% FBS, penicillin (50 U/ml), and streptomycin (50 μg/ml). At this point, the composition of the medium was changed by substituting 4% NuSerum (Collaborative Biomedical Products, Inc.) for 10% FBS. Individual cultures then received Cyr61, fibronectin, heparin (each at approximately 1 μg/ml) or buffer as a negative control. […] Harlow et al.
Cell proliferation during the 4 day culture period was determined by counting cell number and by incorporation of [^3H]-thymidine. To determine cell number, cells were harvested by trypsin/EDTA (Sigma) and counted with a Coulter counter. In parallel cultures, [^3H]-thymidine (1 μCi/ml; ICN) was added to the media for 18 hours and incorporation in the TCA-insoluble layer was determined by liquid scintillation counting.

B1: Cyr61: Cysteine-rich ECM signaling protein; murine sequence SEQ ID NO:2, recombinant from Baculovirus-infected Sf9 cells (protein, listed as Mus musculus)
chain: MSSSTFRTLAVAVTLLHLTRLALSTCPAACHCPLEAPKCAPGVGLVRDGCGCCKVCAKQLNEDCSKTQPCDHTKGLECNFGASSTALKGICRAQSEGRPCEYNSRIYQNGESFQPNCKHQCTCIDGAVGCIPLCPQELSLPNLGCPNPRLVKVSGQCCEEWVCDEDSIKDSLDDQDDLLGLDASEVELTRNNELIAIGKGSSLKRLPVFGTEPRVLFNPLHAHGQKCIVQTTSWSQCSKSCGTGISTRVTNDNPECRLVKETRICEVRPCGQPVYSSLKKGKKCSKTKKSPEPVRFTYAGCSSVKKYRPKYCGSCVDGRCCTPLQTRTVKMRFRCEDGEMFSKNVMMIQSCKCNYNCPHPNEASFRLYSLFNDIHKFRD
cell number and DNA synthesis: both increased cell number and enhanced DNA synthesis after 2 and 3 days in culture
